Data from the nanobody polyreactivity screen of Harvey et al. (2022).

Test: yeast display, Sf9 membrane polyspecificity reagent, FACS + sequencing; frameworks hold sequencing errors
Procedure, shortened: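 A nanobody's polyreactivity label depends on the gate it was sorted from. Yeast display cells were stained with 10% biotinylated, detergent-solubilized Sf9 membrane reagent for 1 hour at 4 °C, enriched on streptavidin microbeads and sorted by FACS. The low and high (top ~1%) gates were set on anti-HA fluorescence for expression and streptavidin fluorescence for reagent binding.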

Sequence | polyreactivity (PSR sort gate)
QVQLVESGRGLVQAGCSLRLSCAASGRIFPWNAMGWYRQAPGKETEFVAAITSGGGTTYYADSVKGRFTISRDTAKITVYLQMNSLKQEDTAVYYCAAPVYTVRGWRGLYGYWGQGSQVTVSS | high polyreactivity
QVQLVESGGGLVQAGGSLRLSCAPCGIIFTDYAMGWYRQAPGKERELVAAISSGGGSTYYADSVKGRFTISRDNAKNTVYLQMNSLKPEDTAVYYCNARSPYYSYLLHAYRVFDYWGQGTQVNVSS | high polyreactivity
QVQLVESGGGLVQAGGSLRLSCAASGNIFVEYAMGWYRQAPGKERELVAAITNSGGRTHYADSVKGRFTISRDNAKNTVYLQMNSLKPEDTAVYYCAAPTKYRSRRYYWGQGTQVTVSS | high polyreactivity
QVQLVESGGGLVQAGGSLRLSCAASGFTFQDYAMGWYRQAPGKERELVASISNGGSTYYADSVKGRFTISRDNAKNTVYLQMNSLKPEDTAVYYCAKPYDPGPYHSSYRATDDYWGQGTQVTVSS | low polyreactivity
QVQLVESGGGLVQAGGSLRLSCAASGSTFFKNAMGWYRQAPGKERELVAAISTGGGSTTYADSVKGRFTISRDNAKNTVYLQMNSLKPEDTAVYYCAAVTLSSTYGGHDYWGQGTQVTVSS | high polyreactivity
QVQLVESGGGLVQAGGSLRLSCAASGRTFTRYTMGWYRQAPRKERELVAAITRGGTTYYADSVKGRFTISRDNAKNTVYLQMNSLKPEDTAVYYCNKRKQQSSDGYGYWGQGTQVTVSS | high polyreactivity
QVQLVESGGGLVQAGGSLRLSCAASGRIFYGYAMGWYRQAPGKEREFVAAITVSAGSTYYADSVKGRFTISRDNAKNTVYLQMNSLKPEDTAVYYCAAKRYVYPSYRFDYWGKGTQVTVSS | low polyreactivity
QVQLVESGGGLVQAGGSLRLSCAASGIILGSNAKGWYRQAPGKERELVAGITSGGGTYYADSVKGRFTISRDNAKKTVYLQMNSLKPEDTAVYYCAKLYFHYYRYGYWGQGTQVTVSS | low polyreactivity
QVQLVESGGGLVQAGGSLRLSCAASGRIFGGYAMGGYRQAPGKERELVAAISSRGTRTYYADSVKGRITISRDNAKNTVYLQMNSLKPEDTAVYYCATAYRGFHYSPLRELDYWGQGTQVTVSS | high polyreactivity
QVQLVESGGGLVQAGGSLRLSCAASGFTFDYYTMGWYRQAPGKERELVATITRSAGRTYYADSVKGRFTISRDNAKNTVYLQMNSLKPEDTAVYYCNADAYVYFDDGDYWGQGTQVTVSS | low polyreactivity
QVQLVESGGGLVQAGGSLRLSCAASGSTFGYYAMGWYRQAPGKERELVATITWSGGSTNYADSVKGRFTISRDNAKNTVYLQMNSLKPEDTAVYYCAADLKYWYFGLAFIEVDYWGQGTQVTVSS | low polyreactivity
QVQLEESGGGLDQAGGSLRLNCAASGLISVYYVRGWYIQAPGKELELVAAINRSGGNTYYADSVKGRFTISRDNAQNTVNLQMNRLKPDVTAVYYCKASLYFYRYGHDYESDYWGQGTQVTVSS | high polyreactivity
QVQLVESGGGLVQAGGSLRLSCAASGINFRGYAMGWYRQAPGKERELVASITNTDSTYYADSVKGRFTISRDNAKNTVYLQMNSLKPEDTAVYYCAARRGRKYGYWGQGTQVTVSS | high polyreactivity
QVQLLETGGGLVQAGGSLRLSCAPSGGIFGFNAMGWYRQAPGKERELVADISDGVRTNYADSVKGLFTISRDNAKTTVYLQMNRLKPEDTAVYYCATDGLFYVDGSWTLGYWGQGTQVTVSS | low polyreactivity
QVQLVESGGGLVHAGGSLRLSCAPSRIFVYNAMGWYRQAPGKERELVATITSSGGITYYADSVKGRFTISRDNAKNTVYLQMNSLKPEDTAVYYCNKVRRYYYRTHNDFWGQGTQVTVSS | high polyreactivity
QVQLVESGGGLVQAGGSLRLSCAASGSTFARYAMGWYRQAPGKERELVAAISANGGITYYADSVKGRFTISRDNAKNTVYLQMNSLKPEDTAVYYCAARKSAYRFYRMNYWGQGTQVTVSS | high polyreactivity
QVQLVESGGGLVQAGGSLRLICAASGFTFYLYTMGWYRPAPGKERELVASIRRSGGSTYYADSVKGRFTISRDNAKNTVYLQMNSLKPEDTAVYYCAKRTFLVSGPRSYGWYGVYYWGQGTQVTVSS | high polyreactivity
